Drawing on PMC11014265, this text covers binding signal, binding result and Kd for six molecules.

Positions count from the first letter of the chain named. Like-named read-outs stand apart in the source and are kept apart here.

As a reminder, the Kd is the concentration at which binding is half-saturated.

What all share (experiment): fluorescence anisotropy
In general terms: Fluorescence polarisation rises when a labelled molecule tumbles more slowly, as on binding a larger partner.

The target in data set [1] is T1, HrpA75-1300 (no APHB) (Escherichia coli, UniProt P43329 75-1300).
T1 sequence: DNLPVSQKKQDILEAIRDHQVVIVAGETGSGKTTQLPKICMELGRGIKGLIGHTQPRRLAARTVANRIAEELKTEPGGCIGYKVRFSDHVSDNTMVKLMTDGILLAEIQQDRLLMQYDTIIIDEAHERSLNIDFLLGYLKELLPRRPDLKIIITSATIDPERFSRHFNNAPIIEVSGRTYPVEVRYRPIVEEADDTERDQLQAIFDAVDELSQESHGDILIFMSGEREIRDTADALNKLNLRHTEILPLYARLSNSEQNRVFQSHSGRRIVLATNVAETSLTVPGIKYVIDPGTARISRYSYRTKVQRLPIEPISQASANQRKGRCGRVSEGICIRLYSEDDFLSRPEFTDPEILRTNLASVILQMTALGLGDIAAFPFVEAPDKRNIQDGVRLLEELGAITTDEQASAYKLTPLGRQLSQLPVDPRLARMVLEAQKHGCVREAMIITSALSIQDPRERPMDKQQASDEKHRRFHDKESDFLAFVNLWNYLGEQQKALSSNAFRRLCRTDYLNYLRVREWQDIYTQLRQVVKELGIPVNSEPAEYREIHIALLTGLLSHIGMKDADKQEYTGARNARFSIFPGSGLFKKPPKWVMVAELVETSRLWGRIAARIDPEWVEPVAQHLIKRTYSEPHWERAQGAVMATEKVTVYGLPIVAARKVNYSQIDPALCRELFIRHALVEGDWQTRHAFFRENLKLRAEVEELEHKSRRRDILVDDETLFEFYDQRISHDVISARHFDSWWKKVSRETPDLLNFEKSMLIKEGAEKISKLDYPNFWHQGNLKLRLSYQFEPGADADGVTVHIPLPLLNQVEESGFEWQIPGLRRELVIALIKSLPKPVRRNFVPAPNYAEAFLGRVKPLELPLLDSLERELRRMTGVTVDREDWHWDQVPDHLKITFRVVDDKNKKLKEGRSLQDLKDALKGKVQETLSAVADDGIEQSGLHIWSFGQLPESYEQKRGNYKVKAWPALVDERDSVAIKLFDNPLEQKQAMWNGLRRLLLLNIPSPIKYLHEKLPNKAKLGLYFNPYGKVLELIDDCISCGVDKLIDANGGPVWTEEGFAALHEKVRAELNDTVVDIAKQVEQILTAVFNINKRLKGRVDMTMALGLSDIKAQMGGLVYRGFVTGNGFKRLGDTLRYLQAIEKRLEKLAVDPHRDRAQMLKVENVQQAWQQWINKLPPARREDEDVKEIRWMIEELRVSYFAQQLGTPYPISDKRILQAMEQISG

In data set [2] the target is T2, HrpA75-758 (no APHB) (Escherichia coli, UniProt P43329 75-758).
T2 sequence: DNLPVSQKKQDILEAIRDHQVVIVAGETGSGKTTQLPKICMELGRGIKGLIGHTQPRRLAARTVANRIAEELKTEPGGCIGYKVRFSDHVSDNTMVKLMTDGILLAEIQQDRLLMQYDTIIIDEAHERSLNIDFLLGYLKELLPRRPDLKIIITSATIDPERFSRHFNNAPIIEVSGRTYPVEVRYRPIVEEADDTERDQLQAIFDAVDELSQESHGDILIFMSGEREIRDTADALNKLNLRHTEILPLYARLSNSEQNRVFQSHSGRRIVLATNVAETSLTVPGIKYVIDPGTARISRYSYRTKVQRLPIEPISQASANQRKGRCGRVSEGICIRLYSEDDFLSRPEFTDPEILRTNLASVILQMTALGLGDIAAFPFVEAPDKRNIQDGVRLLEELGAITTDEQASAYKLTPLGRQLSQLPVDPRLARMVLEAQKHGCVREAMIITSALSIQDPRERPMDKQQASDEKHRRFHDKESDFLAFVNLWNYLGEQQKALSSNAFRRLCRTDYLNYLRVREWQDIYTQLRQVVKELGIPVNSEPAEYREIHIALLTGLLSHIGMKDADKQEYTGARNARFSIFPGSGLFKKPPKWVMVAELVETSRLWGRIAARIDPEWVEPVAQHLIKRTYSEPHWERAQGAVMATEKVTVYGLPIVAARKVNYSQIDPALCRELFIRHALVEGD

Data set [3] has as its target T1, HrpA75-1300 (no APHB). The source holds these as a separate data set.
Data set [4] concerns the target T3, HrpA1-1300 E49A (Escherichia coli, UniProt P43329 1-1300, E49A).
T3 sequence: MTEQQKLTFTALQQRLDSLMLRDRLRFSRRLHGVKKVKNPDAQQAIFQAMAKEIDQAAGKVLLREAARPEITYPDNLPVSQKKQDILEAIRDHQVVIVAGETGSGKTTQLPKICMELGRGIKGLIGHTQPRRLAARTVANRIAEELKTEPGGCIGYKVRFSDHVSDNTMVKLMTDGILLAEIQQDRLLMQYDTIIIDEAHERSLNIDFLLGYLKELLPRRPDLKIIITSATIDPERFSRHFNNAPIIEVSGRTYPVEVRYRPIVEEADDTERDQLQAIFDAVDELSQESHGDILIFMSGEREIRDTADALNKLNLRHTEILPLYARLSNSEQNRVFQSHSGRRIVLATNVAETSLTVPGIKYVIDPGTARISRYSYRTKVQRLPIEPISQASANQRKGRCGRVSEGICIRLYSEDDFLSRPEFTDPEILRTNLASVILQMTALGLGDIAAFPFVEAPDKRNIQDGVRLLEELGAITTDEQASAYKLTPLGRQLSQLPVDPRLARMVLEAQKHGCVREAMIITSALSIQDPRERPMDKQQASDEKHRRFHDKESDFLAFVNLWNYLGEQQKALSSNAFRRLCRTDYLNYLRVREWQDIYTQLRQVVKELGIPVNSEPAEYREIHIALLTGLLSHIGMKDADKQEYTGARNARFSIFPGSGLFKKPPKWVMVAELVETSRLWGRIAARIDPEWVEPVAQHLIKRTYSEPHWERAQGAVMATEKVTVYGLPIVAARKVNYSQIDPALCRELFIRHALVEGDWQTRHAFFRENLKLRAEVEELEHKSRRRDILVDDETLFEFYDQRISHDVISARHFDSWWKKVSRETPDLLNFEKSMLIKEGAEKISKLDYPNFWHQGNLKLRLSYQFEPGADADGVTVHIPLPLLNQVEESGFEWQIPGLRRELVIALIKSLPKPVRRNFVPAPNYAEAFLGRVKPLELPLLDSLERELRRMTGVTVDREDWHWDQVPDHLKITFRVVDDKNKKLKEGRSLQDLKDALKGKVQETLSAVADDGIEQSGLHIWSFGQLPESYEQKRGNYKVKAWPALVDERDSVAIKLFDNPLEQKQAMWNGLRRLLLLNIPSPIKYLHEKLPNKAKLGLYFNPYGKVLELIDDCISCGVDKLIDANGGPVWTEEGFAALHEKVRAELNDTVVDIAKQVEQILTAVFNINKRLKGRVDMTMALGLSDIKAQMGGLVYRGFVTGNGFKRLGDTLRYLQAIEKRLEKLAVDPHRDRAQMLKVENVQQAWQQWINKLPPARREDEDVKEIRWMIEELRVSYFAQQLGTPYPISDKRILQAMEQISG

In data set [5] the target is T4, HrpA1-1300 (full-length) (Escherichia coli, UniProt P43329 1-1300).
T4 sequence: T3 sequence with A49E

For data set [6], the target named is T1, HrpA75-1300 (no APHB). This is another data set of the same source.
Data set [7] addresses T2, HrpA75-758 (no APHB). This is another data set of the same source.
Data set [8] has as its target T1, HrpA75-1300 (no APHB). The source holds these as a separate data set.
For data set [9], the target named is T1, HrpA75-1300 (no APHB). The source holds these as a separate data set.

For the molecule AAAAAAAAAAAA (ssRNA) [R-A12], the binding signal in [1] and in [2] was more than 3 fold reduction in each case. On to CCCCCCCCCCCC (ssDNA) [D-C12], for which the binding result in data set [3] is recorded as “no binding”; in data set [4] it was “binds”. For TTTTTTTTTTTT (ssDNA) [D-T12], in [5], the affinity, expressed as Kd, was 307 nM. For the molecule CCCCCCCCCCCC (ssRNA) [R-C12], the binding signal was more than 9 fold reduction in [6] and more than 3 fold reduction in data set [7]. Take GUGUGUGUGUGU (ssRNA) [R-G-rich]: the binding signal in data set [8] was more than 9 fold reduction; in data set [2] it was more than 3 fold reduction. For the molecule UUUUUUUUUUUU (ssRNA) [R-U12], the results for the binding signal in [9] and in data set [7] were more than 2 fold reduction and more than 3 fold reduction, respectively.
